In one data set the target is ZFA36-ND1 (Artificial (ND1 from Bacillus sp. …)). The experiment in a line: cell_activity; Cel-I assay CHO-K1, stated for the sites overall. The settings on record: tags: TGAAARA linker; residues from the E. coli expression version (His/NLS); chain copies: 2 inferred.
A further data set has as its target ZFL1-ND1-DDD (Artificial). The experiment in a line: cell_activity; SSA, ZFL1-6bp-ZFA36, paired with ND1-RRR; about 80% with FokI-RRR; alone almost inactive. The settings on record: R493D/N502D. As for the experimental part:
(§1) Genes to Cells 15: 875-885). To a 96-well multiwell plate (Iwaki) treated with polylysine coat, 25 μL of serum-free D-MEM culture solution was added, and 6 μL of plasmid solution was mixed. To this, 25.7 μL of a solution containing 0.7 μL of Lipofectamine LTX (Life Technologies) per 25 μL of serum-free D-MEM culture solution was added, and the mixture was allowed to stand at room temperature for 30 minutes. During this period, HEK293T cells were dissociated from a 100 mm tissue culture dish (Iwaki) by trypsin treatment, centrifuged at 1000 rpm for 3 minutes, the supernatant was removed, and the cells were suspended again in 5 mL of the culture solution. A 10 μL cell suspension was dispensed, and the number of cells was counted. […]
(§2) Furthermore, in order to functionally convert the amino acids of the novel nuclease domains corresponding to the amino acids (D483, R487, and N496) involved in the heterodimerization of FokI-ND to the DDD-type, each pSTL-hPGRN_ZFL1-ND was used as a template and a primer pair was used to perform PCR by PrimeSTAR Max. […] Note that the amount of each ZFN plasmid in 7.2 μL of the plasmid solution used in the SSA reporter assay was changed to 120 ng for the target half-site L and 120 ng for the target half-site R. In addition, nuclease activity was measured by the Cel-I assay in the same manner as described in Example 3.

For another data set, the target named is ZFA36-ND1-RRR (Artificial). In words: cell_activity; SSA, ZFL1-6bp-ZFA36, paired with ND1-DDD; about 60% with FokI-DDD; alone almost inactive. The settings on record: D489R/N543R. How it is done: as §1, §2
Sequence of ZFA36-ND1-RRR (Artificial) (chain, as listed by the source): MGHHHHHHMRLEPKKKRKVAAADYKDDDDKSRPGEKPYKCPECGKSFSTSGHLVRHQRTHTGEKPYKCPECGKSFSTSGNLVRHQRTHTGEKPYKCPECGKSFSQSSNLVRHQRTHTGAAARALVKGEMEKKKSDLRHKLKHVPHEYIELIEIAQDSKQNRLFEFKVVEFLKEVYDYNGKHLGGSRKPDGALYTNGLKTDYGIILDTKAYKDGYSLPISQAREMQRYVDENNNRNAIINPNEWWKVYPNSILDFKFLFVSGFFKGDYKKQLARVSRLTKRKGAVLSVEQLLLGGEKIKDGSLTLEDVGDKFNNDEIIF

Results on three molecules are retold here after US20210332339, “NOVEL NUCLEASE DOMAIN AND USE THEREOF” (HIROSHIMA UNIVERSITY, published 2021).

Sequence of ZFL1-ND1-DDD (Artificial) (chain, as listed by the source): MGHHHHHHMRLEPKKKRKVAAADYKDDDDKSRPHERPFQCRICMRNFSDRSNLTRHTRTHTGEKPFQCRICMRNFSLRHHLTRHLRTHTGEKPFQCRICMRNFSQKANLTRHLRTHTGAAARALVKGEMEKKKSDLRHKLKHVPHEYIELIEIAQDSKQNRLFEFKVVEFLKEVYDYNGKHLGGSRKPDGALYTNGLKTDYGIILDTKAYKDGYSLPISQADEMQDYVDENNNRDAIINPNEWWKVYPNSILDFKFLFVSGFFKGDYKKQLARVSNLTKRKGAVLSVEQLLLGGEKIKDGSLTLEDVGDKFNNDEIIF

B1: ZFA36-ZFA36 CHO-K1 3rd site (dsDNA)
DNA 1: ACCATCTTCCTTGATGAAGATGCC
DNA 2: GGCATCTTCATCAAGGAAGATGGT
Regarding B1, the binding signal with ZFA36-ND1 is ~1.5 fold of FokI-ND.

B2: ZFL1 half-site (dsDNA)
DNA 1: GAAGGTGAC
DNA 2: GTCACCTTC
With B2, the binding signal with ZFL1-ND1-DDD was ~1.6 fold.

B3: ZFA36 half-site (dsDNA)
DNA 1: GAAGATGGT
DNA 2: ACCATCTTC
B3: the binding signal with ZFA36-ND1-RRR was ~1.6 fold.
